This data set deals with MS2 coat protein. Briefly: apparent KD of MS2 coat protein; higher = weaker reporter binding. As to conditions: Eterna round: R107. As to the method: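 RNA-MaP round R107: designed RNA switches with theophylline, tryptophan, arginine or FMN aptamers are transcribed on-chip within common flanks. They are titrated with SNAP-549-labelled MS2 coat protein in RNA-MaP buffer (100 mM Tris pH 7.5, 80 mM KCl, 4 mM MgCl2), without ligand or with the indicated ligand. Median apparent KD per design.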

Where [1] appears, read: input ligand: theophylline 20 uM.
Where [2] appears, read: input ligand: tryptophan 2.4 mM.
[3] abbreviates: input ligand: theophylline 2 mM.

Consider “GAUGAACUAUUUGAUACCAGACUACAUGAGGAUCACCCAUGUGCGCGUCGUCCUCUGCCAGUCCCUUGGCAGCAAAUAGUUUAUC [XTheo B #9]”, for which the “apparent KD of MS2 coat protein” value runs as follows: (input ligand: arginine 13.2 mM) 69.8 nM; under setting [1], 140 nM; under setting [2], 85.2 nM.
In the case of “UGACAUUGCUCAGAUACCAGACAUGAGCAUCAGCCAUGUACCAAGAGUACAUGUUAAAGUGUCCCUUGGCAGCUGAGCAAUGUCU [Mod of Eli's TheoBX5 #AlternateMS2 v3]”, the “apparent KD of MS2 coat protein” value amounted to 56.4 nM (input ligand: arginine 13.2 mM); 70.9 nM (input ligand: none); 193 nM under setting [1]; 603 nM under setting [3]; 72 nM under setting [2].
As for “UGCGUACAUGAGGAUCACCCAUGUAUAGAUACCAGUCACCCAUGUGGCCCUUGGCAGCUAACAUGAGGAUCACUACAUGAGGAUC [Exclusion Theophylline A 3]”, the “apparent KD of MS2 coat protein” value runs as follows: (input ligand: arginine 13.2 mM) 24.3 nM; under setting [1], 72.2 nM; under setting [2], 32.7 nM.
In the case of “UGUAUGGACUGAAGGAGCGGGAAAAUAACUUGAGGAUCACCCAGGUAAAAGGCGAAAGCCACCCAGGUAGGUCGCAGUCCAUACU”, the “apparent KD of MS2 coat protein” value came to 21.5 nM (input ligand: arginine 13.2 mM); 26.2 nM (input ligand: none); 30.1 nM under setting [1]; 22.4 nM under setting [3]; 25.9 nM under setting [2].
On the same counts, the results for “AAUAAUAACUGAAGGAGCGUCUAUAUUACAUGAGGAUCACCCAUGUUUAUAUGGUAUUAUAGACAGGUAGGUCGCAGAUUUUUUA [JR_SSArginiB_Sub016]” are 14.5 nM, 16.6 nM, 22.1 nM, 18.6 nM and 16.3 nM.
On the same counts, the results for “GUAGGUCAGUGAUCCCGACCUACACUGGAAGGAGCGAGCGAAAGCUCAGGUAGGUCGCCAGAAACAUGAGGAUCACCCAUGUAAU [(A)''-(M)'-(A)'-(Arg1)-(Arg2)-(M1)-(M2)_Design1]” are 76.1 nM, 172 nM, 153 nM, 219 nM and 118 nM.
Consider “UGUACAUGAGGAUCACCCAUGUUACGCGAUACCAGACAUGAGAGUGUCCCUUGGCAGCGUGGAGCUGAUACGGCGGGAAGCCGGA [#10 SameState-TheophyllineA]”, for which the “apparent KD of MS2 coat protein” value was 16.1 nM (input ligand: arginine 13.2 mM), 50.2 nM under setting [1] and 45.9 nM under setting [2].
“CUAUAUUUAUCGGCCGCCACUUACUCAUGAGGUAACAACAUGAGGAUCACCCAUGUUUGAGGAUCAAGGACCGGGAUAAAUAUAG [AstrosSSTryB#17]”: the “apparent KD of MS2 coat protein” value by setting is: (input ligand: arginine 13.2 mM) 25.4 nM; under setting [1], 34.2 nM; under setting [3], 31 nM.
For the sequence “UGUAAUGUGGGAAGGAGCGCAUACUUCACAUGAGGAUCACCCAUGUCAAGACGUGAGUCAGUGCAGGUAGGUCGCCUAGUUUAGA [Same State - Arginine B (Freestyle 18)]”, the “apparent KD of MS2 coat protein” value runs as follows: (input ligand: arginine 13.2 mM) 37.2 nM; (input ligand: none) 97 nM; under setting [1], 75.4 nM; under setting [3], 88.9 nM; under setting [2], 42 nM.
Consider “GCUCACAUGAGGAUCACCCAUGUACGUCCGCGAGGACCGGUACGGCCGCCACUCGUGUUAGCUUCAAACUUGUUAGUGUUAAACA [Atleerge]”, for which the “apparent KD of MS2 coat protein” value (input ligand: arginine 13.2 mM) came to 31.3 nM, the “apparent KD of MS2 coat protein” value under setting [1] was 53.4 nM and the “apparent KD of MS2 coat protein” value under setting [3] worked out at 68.4 nM.
Consider “AGAUUACAUGUUAUAAUACGGUAUACUGAUACCAGUGUUUCUAUUCACCCUUGGCAGCAGCAACAUGAGGAUCACCCAUGUAUUA [JR_SSTheophyA_Sub017]”, for which the “apparent KD of MS2 coat protein” value is, setting by setting: (input ligand: arginine 13.2 mM) 14.9 nM; under setting [1], 21.4 nM; under setting [2], 17.7 nM.
Take “AAAUAAAUACAUGAGGAUCACCCAUGUGAAGGAGCGCGCGUUAGCGCAGGUAGGUCGCACAUGAAUAACUCCGCGCGAAAGCGCA [MAT - Exclusion Arginine A - Mod of Eli - D11]”: the “apparent KD of MS2 coat protein” value was determined as 11.8 nM (input ligand: arginine 13.2 mM); 17.4 nM (input ligand: none); 23.7 nM under setting [1]; 19.6 nM under setting [3]; 16.4 nM under setting [2].
For the sequence “AUUAUCAUGGUCAUUUAUAUUUCGUCAGAUACCAGACUAGAUAUAGUCCCUUGGCAGCUGUUACAUGAGGAUCACCCAUGUUAUU [JR_ExcTheophyA_Sub018]”, the “apparent KD of MS2 coat protein” value by setting is: (input ligand: arginine 13.2 mM) 44.7 nM; under setting [1], 70.6 nM; under setting [2], 103 nM.
In the case of “GCUAGCCGAAAGGCUAGCAAGGCUACAGAAGGAGCGUGCGAAAGCACAGGUAGGUCGCUGAGCUUGAGGAUCACCCAAGUUGCCU [SSAA - Alter Amptam #1 V+V2]”, the “apparent KD of MS2 coat protein” value came to 26.2 nM (input ligand: arginine 13.2 mM); 66.7 nM (input ligand: none); 57.2 nM under setting [1]; 48.6 nM under setting [3]; 64 nM under setting [2].
Regarding “AGCACUGUGACGGCCGCCACUAUAUUAGGGUGGUCAGGUUCAUAAAUACAUGAGGAUCACCCAUGUAGGACCGGGUCUCAGUGCA [Omei Trp Exc B A v3]”, the “apparent KD of MS2 coat protein” value reads like this: (input ligand: arginine 13.2 mM) 11.1 nM; under setting [1], 13.8 nM; under setting [3], 12.3 nM.
For the sequence “AAGUAAACAUGAGCAAAGCUCAUGUGCGAAGGAGCGGCGGAAACGCCAGGUAGGUCGCGCACAUGAGCAUCAGCCAUGUGUAUCA [Omei Arginine B SS A v2]”, the “apparent KD of MS2 coat protein” value by setting is: (input ligand: arginine 13.2 mM) 45.3 nM; (input ligand: none) 31 nM; under setting [1], 33.5 nM; under setting [3], 22.1 nM; under setting [2], 9 nM.
On the same counts, the results for “UAGCGAUAAUCUGAUACCAGACGUGUACUCUCCUCAGACAUGAGCAUCAGCCAUGUAUGCGUCCCUUGGCAGCAGAGAUAGGAGA [Theo B Ex t5b]” are 16.9 nM, 16.1 nM, 24.5 nM, 36.7 nM and 16.9 nM.
As to “ACAUGAGGAUCACCCAUGUUUGAUGUUCCUCGAGGACCGGUACGGCCGCCACUCGAACGAGUGGCGCGCGAGCGCGCGCUCGCGC [aRa]”, the “apparent KD of MS2 coat protein” value runs as follows: (input ligand: arginine 13.2 mM) 11.4 nM; under setting [1], 20.3 nM; under setting [3], 14.8 nM.

Values taken from the supplement of paper PMC9170038.
